# According to IntAct's records for PubMed 25914052:
# B1: General negative regulator of transcription subunit 4 (Saccharomyces cerevisiae), P34909 (parent)
# chain: MMNPHVQENLQAIHNALSNFDTSFLSEDEEDYCPLCIEPMDITDKNFFPCPCGYQICQFCYNNIRQNPELNGRCPACRRKYDDENVRYVTLSPEELKMERAKLARKEKERKHREKERKENEYTNRKHLSGTRVIQKNLVYVVGINPPVPYEEVAPTLKSEKYFGQYGKINKIVVNRKTPHSNNTTSEHYHHHSPGYGVYITFGSKDDAARCIAQVDGTYMDGRLIKAAYGTTKYCSSYLRGLPCPNPNCMFLHEPGEEADSFNKRELHNKQQAQQQSGGTAFTRSGIHNNISTSTAGSNTNLLSENFTGTPSPAAMRAQLHHDSHTNAGTPVLTPAPVPAGSNPWGVTQSATPVTSINLSKNSSSINLPTLNDSLGHHTTPTTENTITSTTTTTNTNATSHSHGSKKKQSLAAEEYKDPYDALGNAVDFLDARLHSLSNYQKRPISIKSNIIDEETYKKYPSLFSWDKIEASKKSDNTLANKLVEILAIKPIDYTASVVQFLQSVNVGVNDNITITDNTKTPTQPIRLQTVSQQIQPPLNVSTPPPGIFGPQHKVPIQQQQMGDTSSRNSSDLLNQLINGRKIIAGN
# Variants of: B1
# Conditions: with not1_yeast CDC39, P25655
# Chain of not1_yeast CDC39, P25655 (P25655 whole entry): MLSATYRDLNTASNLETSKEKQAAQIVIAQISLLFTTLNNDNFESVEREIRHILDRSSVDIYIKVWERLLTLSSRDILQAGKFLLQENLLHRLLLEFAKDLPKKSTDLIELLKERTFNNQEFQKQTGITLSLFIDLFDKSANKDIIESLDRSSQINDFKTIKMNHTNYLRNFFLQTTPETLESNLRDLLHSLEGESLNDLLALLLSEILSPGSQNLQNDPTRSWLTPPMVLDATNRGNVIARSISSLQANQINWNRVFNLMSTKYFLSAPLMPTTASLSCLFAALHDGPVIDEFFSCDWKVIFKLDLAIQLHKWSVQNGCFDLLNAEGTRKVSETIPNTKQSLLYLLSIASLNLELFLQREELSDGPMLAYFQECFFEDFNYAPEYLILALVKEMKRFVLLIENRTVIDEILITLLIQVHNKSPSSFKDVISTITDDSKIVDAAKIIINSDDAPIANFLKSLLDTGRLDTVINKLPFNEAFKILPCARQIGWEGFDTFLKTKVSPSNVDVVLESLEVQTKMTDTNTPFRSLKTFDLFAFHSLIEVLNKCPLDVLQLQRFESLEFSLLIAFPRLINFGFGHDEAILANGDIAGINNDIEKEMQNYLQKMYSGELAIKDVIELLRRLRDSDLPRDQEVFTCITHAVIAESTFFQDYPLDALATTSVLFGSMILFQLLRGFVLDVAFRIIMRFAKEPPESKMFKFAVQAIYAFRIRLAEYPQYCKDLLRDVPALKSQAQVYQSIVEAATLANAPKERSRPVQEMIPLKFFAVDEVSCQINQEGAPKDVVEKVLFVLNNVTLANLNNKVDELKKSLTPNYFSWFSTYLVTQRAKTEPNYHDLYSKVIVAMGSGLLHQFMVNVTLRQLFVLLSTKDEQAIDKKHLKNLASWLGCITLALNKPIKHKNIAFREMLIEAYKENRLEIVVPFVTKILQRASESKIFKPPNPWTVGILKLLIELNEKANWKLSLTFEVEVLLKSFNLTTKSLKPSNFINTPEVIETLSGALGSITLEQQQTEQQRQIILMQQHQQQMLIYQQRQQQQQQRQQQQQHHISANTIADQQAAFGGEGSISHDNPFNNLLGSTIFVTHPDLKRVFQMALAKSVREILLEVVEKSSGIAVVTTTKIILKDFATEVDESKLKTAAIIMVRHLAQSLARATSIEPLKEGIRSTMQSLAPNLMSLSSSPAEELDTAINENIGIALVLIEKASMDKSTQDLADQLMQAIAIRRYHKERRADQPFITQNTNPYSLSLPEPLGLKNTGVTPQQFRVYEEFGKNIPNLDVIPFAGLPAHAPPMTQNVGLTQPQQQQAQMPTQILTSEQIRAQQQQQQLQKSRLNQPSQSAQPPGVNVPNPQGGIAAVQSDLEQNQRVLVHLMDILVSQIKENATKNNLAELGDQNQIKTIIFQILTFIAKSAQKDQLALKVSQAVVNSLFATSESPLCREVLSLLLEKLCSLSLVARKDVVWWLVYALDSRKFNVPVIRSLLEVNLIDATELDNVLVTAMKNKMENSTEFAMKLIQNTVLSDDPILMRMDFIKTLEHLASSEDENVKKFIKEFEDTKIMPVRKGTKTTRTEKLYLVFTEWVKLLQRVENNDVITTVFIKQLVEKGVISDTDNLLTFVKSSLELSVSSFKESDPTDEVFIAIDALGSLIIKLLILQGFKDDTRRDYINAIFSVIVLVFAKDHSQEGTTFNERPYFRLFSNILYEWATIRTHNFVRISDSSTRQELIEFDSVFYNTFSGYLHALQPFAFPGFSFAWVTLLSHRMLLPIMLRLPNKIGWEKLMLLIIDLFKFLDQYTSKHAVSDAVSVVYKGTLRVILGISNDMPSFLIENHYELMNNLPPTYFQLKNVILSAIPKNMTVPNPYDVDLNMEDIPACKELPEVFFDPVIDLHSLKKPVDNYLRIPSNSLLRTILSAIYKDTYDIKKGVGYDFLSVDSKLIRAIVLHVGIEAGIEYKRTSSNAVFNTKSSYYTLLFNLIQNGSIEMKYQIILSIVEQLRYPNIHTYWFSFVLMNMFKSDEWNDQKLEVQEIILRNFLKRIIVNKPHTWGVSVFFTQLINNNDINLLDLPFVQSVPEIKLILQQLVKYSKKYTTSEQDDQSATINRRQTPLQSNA
row,effect of a mutation on the interaction,Variant
1,disrupting interaction,MMNPHVQENLQAIHNALSNFDTSFLSEDEEDYCPLCIEPMDITDKNFFPCPCGYQICQFCYNNIRQNPELNGRCPACRRKYDDENVRYVTLSPEELKMERAKLARKEKERKHREKERKENEYTNRKHLSGTRVIQKNLVYVVGINPPVPYEEVAPTLKSEKYFGQYGKINKIVVNRKTPHSNNTTSEHYHHHSPGYGVYITFGSKDDAARCIAQVDGTYMDGRLIKAAYGTTKYCSSYLRGLPCPNPNCMFLHEPGEEADSFNKRELHNKQQAQQQSGGTAFTRSGIHNNISTSTAGSNTNLLSENFTGTPSPAAMRAQLHHDSHTNAGTPVLTPAPVPAGSNPWGVTQSATPVTSINLSKNSSSINLPTLNDSLGHHTTPTTENTITSTTTTTNTNATSHSHGSKKKQSLAAEEYKDPYDALGNAVDFLDARLHSLSNYQKRPISIKSNIIDEETYKKYPSLESEDKIEASKKSDNTLANKLVEILAIKPIDYTASVVQFLQSVNVGVNDNITITDNTKTPTQPIRLQTVSQQIQPPLNVSTPPPGIFGPQHKVPIQQQQMGDTSSRNSSDLLNQLINGRKIIAGN [F464E;W466E]
2,disrupting interaction,MMNPHVQENLQAIHNALSNFDTSFLSEDEEDYCPLCIEPMDITDKNFFPCPCGYQICQFCYNNIRQNPELNGRCPACRRKYDDENVRYVTLSPEELKMERAKLARKEKERKHREKERKENEYTNRKHLSGTRVIQKNLVYVVGINPPVPYEEVAPTLKSEKYFGQYGKINKIVVNRKTPHSNNTTSEHYHHHSPGYGVYITFGSKDDAARCIAQVDGTYMDGRLIKAAYGTTKYCSSYLRGLPCPNPNCMFLHEPGEEADSFNKRELHNKQQAQQQSGGTAFTRSGIHNNISTSTAGSNTNLLSENFTGTPSPAAMRAQLHHDSHTNAGTPVLTPAPVPAGSNPWGVTQSATPVTSINLSKNSSSINLPTLNDSLGHHTTPTTENTITSTTTTTNTNATSHSHGSKKKQSLAAEEYKDPYDALGNAVDFLDARLHSLSNYQKRPISIKSNIIDEETYKKYPSEESWDKIEASKKSDNTLANKLVEILAIKPIDYTASVVQFLQSVNVGVNDNITITDNTKTPTQPIRLQTVSQQIQPPLNVSTPPPGIFGPQHKVPIQQQQMGDTSSRNSSDLLNQLINGRKIIAGN [L463E;F464E]
